What is called koff is the rate constant with which the complex falls apart. A higher koff goes with fast dissociation. As a reminder, the kon is the rate constant with which the complex forms. High values mean faster complex formation, low ones slower complex formation. One may read the stoichiometry N as the number of molecules, sites or subunits per partner or assembly.

The results in this text go back to PMC11617999.

Several values for one entry are separate records, joined by “and”; a condition that tells them apart may be missing. Equal values may be shown once.

In assay [1] the target is His-FakB2 (fatty acid binding protein FakB2, Staphylococcus aureus) (S. aureus). As to the kind of experiment: BLI; Octet RED96e; His-FakB2 (2 ug/mL) immobilised on Ni-NTA biosensor tips, blocked with 0.1 mg/mL BSA; untagged FakA 1.65-133.3 nM in solution, 5 min association, 10 min dissociation; 50 mM Tris HCl pH 7.4, 150 mM KCl, 1 mM TCEP, 5% glycerol, 10 mM MgCl2; 1:1 binding model (1 FakB2:1 FakA binding site). On the technique in general: In BLI a coated tip is dipped into the sample, and binding shifts an interference pattern.

Assay [2] has as its target FakA H282A, H284A variant (Staphylococcus aureus) (S. aureus). As to the kind of experiment: mass photometry; kinetic mass photometry, 20 min after dilution to 10 nM (equilibrium); room temperature; 50 mM Tris pH 7.4, 150 mM KCl, 1 mM TCEP, 10 uM ZnSO4; dimer to monomers.
The target is the same in assay [3]. The experiment in a line: mass photometry; kinetic mass photometry, initial reading (0 min) after dilution to 10 nM; room temperature; 50 mM Tris pH 7.4, 150 mM KCl, 1 mM TCEP, 10 uM ZnSO4; dimer to monomers.
Assay [4] has as its target His-tagged FakB2 (Staphylococcus aureus) (S. aureus). As to the kind of experiment: BLI; additional studies as a1 but FakB loaded at a range of 2 to 20 ug/mL.
The target of assay [5] is Fatty acid kinase FakA, wild type (Staphylococcus aureus) (S. aureus). The experiment in a line: SEC-SAXS; size-exclusion chromatography coupled with small-angle X-ray scattering of FakA in solution; AlphaFold dimer model refined with BilboMD, envelopes by DAMMIF and DENSS. On the technique in general: Size exclusion chromatography separates by hydrodynamic size, large species first.

Assay [6] shares this target. As to the kind of experiment: mass photometry; kinetic mass photometry, 20 min after dilution to 10 nM (equilibrium); room temperature; 50 mM Tris pH 7.4, 150 mM KCl, 1 mM TCEP, 10 uM ZnSO4; dimer to monomers.
Assay [7] shares this target. As to the kind of experiment: mass photometry; kinetic mass photometry, initial reading (0 min) after dilution to 10 nM; room temperature; 50 mM Tris pH 7.4, 150 mM KCl, 1 mM TCEP, 10 uM ZnSO4; dimer to monomers.
Assay [8] has as its target His-tagged FakB2 (Staphylococcus aureus) (S. aureus). As to the kind of experiment: BLI; His-FakB2 (2 ug/mL) immobilised on Ni-NTA biosensor tips, blocked with 0.1 mg/mL BSA; varying concentrations of untagged FakA, 5 min association, 10 min dissociation; 50 mM Tris HCl pH 7.4, 150 mM KCl, 1 mM TCEP, 5% glycerol, 10 mM MgCl2; Octet RED96e; fitted 1:1 and with a bivalent analyte model.

As for “FakA (fatty acid kinase, Staphylococcus aureus), untagged (enzyme)”, in assay [1], the koff was found to be 0.000686 s⁻¹ and the kon amounted to 158000 M⁻¹ s⁻¹.
For “FakA H282A, H284A variant (Staphylococcus aureus) (enzyme)”, the results for the percent of protein in the dimer peak in assay [2] and in assay [3] were 24% and 63%, respectively.
“Fatty acid kinase FakA, wild type (Staphylococcus aureus) (enzyme)”: the Kd in assay [4] is 4.34 to 15 nM and 10.6 nM; in assay [8], 4.34 nM. Moreover, the stoichiometry N in assay [5] is 2. Besides, the percent of protein in the dimer peak in assay [6] stood at 57%; in assay [7] it was 77%.
